Laboratory results as given in article PMC9482650, “Quantitative fragmentomics allow affinity mapping of interactomes” (Nature Communications, 2022).

T1: ARHGAP21, Q5T5U3
T1 sequence (Q5T5U3 45-169, limits assumed, looked up): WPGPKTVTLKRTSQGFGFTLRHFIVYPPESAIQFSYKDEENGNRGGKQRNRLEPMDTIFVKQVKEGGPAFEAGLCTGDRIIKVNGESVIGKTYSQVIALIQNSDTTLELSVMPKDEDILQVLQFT

T2: DFNB31_1, Q9P202
T2 sequence (Q9P202 135-233, limits assumed, looked up): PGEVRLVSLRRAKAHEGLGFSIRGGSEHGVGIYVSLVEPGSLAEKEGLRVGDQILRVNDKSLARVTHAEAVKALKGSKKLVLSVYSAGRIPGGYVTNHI

T3: GRIP1_7, Q9Y3R0
T3 sequence (Q9Y3R0 999-1096, limits assumed, looked up): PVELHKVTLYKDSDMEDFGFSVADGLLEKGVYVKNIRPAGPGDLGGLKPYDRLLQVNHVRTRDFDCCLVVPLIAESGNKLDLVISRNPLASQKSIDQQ

T4: HTRA3, P83110
T4 sequence (P83110 354-453, limits assumed, looked up): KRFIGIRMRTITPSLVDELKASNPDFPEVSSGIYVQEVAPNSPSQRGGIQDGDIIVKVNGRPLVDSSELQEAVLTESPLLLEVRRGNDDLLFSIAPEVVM

T5: LIN7C, Q9NUP9
T5 sequence (Q9NUP9 88-185, limits assumed, looked up): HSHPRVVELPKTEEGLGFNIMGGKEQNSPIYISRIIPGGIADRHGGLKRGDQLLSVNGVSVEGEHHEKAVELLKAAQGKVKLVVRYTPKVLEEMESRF

T6: LNX2_3, Q8N448
T6 sequence (Q8N448 463-564, limits assumed, looked up): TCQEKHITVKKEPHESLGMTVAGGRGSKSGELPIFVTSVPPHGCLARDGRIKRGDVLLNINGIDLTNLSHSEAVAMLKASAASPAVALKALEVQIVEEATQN

T7: MPDZ_5, O75970
T7 sequence (O75970 695-796, limits assumed, looked up): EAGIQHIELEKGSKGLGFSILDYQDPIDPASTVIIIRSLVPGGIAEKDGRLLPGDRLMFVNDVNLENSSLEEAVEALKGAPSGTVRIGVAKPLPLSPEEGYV

T8: PARD3B_1, Q8TEW8
T8 sequence (Q8TEW8 196-299, limits assumed, looked up): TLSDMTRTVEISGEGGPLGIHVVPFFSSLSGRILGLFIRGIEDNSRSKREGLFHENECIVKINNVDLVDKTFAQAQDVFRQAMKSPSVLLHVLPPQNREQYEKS

T9: PDZD2_2, O15018
T9 sequence (O15018 329-429, limits assumed, looked up): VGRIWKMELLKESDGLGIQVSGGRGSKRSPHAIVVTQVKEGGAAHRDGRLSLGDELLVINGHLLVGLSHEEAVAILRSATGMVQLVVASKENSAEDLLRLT

T10: SNTA1, Q13424
T10 sequence (Q13424 82-180, limits assumed, looked up): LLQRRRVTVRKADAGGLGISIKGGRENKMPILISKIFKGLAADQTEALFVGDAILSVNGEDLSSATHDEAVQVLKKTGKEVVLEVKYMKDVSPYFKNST

T11: TX1BP3, O14907
T11 sequence (O14907 10-122, limits assumed, looked up): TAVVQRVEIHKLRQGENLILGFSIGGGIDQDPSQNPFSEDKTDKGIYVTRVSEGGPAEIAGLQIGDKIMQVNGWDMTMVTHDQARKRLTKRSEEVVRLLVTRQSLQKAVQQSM


Legend:
Experiment in all cases: holdup assay
Parameters in all cases: key: below the threshold = too weak to quantify, mostly under pKd 3.1 to 4
Conditions in all cases: plain residues with an end cap or a label only (N-terminal biotin on a linker: ado-ado)
ARHGAP21, Q5T5U3 = biological target: T1, ARHGAP21, Q5T5U3
DFNB31_1, Q9P202 = biological target: T2, DFNB31_1, Q9P202
DLG2_3, Q15700 = biological target: DLG2_3, Q15700
FRMPD2_1, Q68DX3 = biological target: FRMPD2_1, Q68DX3
FRMPD3, Q5JV73 = biological target: FRMPD3, Q5JV73
GIPC2, Q8TF65 = biological target: GIPC2, Q8TF65
GOPC, Q9HD26 = biological target: GOPC, Q9HD26
GORASP2, Q9H8Y8 = biological target: GORASP2, Q9H8Y8
GRID2IP_2, A4D2P6 = biological target: GRID2IP_2, A4D2P6
GRIP1_7, Q9Y3R0 = biological target: T3, GRIP1_7, Q9Y3R0
HTRA3, P83110 = biological target: T4, HTRA3, P83110
Inadl_1, Q8NI35 = biological target: Inadl_1, Q8NI35
Inadl_3, Q8NI35 = biological target: Inadl_3, Q8NI35
Inadl_5, Q8NI35 = biological target: Inadl_5, Q8NI35
LAP2, Q96RT1 = biological target: LAP2, Q96RT1
LIN7C, Q9NUP9 = biological target: T5, LIN7C, Q9NUP9
LNX2_3, Q8N448 = biological target: T6, LNX2_3, Q8N448
MPDZ_5, O75970 = biological target: T7, MPDZ_5, O75970
NHERF2_2, Q15599 = biological target: NHERF2_2, Q15599
PARD3B_1, Q8TEW8 = biological target: T8, PARD3B_1, Q8TEW8
PDZD2_2, O15018 = biological target: T9, PDZD2_2, O15018
SCRIB_2, Q14160 = biological target: SCRIB_2, Q14160
SNTA1, Q13424 = biological target: T10, SNTA1, Q13424
TJP1_2, Q07157 = biological target: TJP1_2, Q07157
TX1BP3, O14907 = biological target: T11, TX1BP3, O14907

Sequence of FRMPD3, Q5JV73 (Q5JV73 12-100): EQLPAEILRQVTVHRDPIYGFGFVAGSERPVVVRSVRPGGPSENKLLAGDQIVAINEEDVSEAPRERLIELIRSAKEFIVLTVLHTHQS
Sequence of GRID2IP_2, A4D2P6 (A4D2P6 272-370): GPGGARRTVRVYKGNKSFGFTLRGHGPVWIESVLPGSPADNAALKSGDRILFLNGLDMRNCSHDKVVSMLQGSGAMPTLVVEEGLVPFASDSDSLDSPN
Sequence of NHERF2_2, Q15599 (Q15599 142-238): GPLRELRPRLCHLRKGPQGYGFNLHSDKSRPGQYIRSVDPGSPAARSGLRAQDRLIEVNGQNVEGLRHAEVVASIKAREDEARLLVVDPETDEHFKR
Sequence of Inadl_5, Q8NI35 (Q8NI35 673-780): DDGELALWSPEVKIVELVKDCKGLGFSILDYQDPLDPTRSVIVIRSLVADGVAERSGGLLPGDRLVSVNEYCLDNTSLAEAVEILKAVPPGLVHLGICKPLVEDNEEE
Sequence of Inadl_1, Q8NI35 (Q8NI35 113-229): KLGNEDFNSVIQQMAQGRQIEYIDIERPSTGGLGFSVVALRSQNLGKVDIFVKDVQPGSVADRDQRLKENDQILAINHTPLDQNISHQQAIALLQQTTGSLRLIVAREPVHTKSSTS
Sequence of SCRIB_2, Q14160 (Q14160 857-960): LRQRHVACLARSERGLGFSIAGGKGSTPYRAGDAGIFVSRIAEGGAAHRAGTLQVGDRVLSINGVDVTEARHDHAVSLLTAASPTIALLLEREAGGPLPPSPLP
Sequence of FRMPD2_1, Q68DX3 (Q68DX3 770-861): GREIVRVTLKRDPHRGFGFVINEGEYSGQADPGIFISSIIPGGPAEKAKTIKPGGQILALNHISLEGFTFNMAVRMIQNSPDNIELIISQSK
Sequence of LAP2, Q96RT1 (Q96RT1 other isoform, or with tags, fused parts or gaps): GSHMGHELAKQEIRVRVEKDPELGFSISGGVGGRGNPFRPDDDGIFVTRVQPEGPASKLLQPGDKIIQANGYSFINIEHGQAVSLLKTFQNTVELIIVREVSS
Sequence of TJP1_2, Q07157 (Q07157 181-274): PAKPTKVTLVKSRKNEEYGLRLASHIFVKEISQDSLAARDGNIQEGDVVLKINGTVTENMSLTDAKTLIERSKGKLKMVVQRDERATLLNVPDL
Sequence of Inadl_3, Q8NI35 (Q8NI35 359-469): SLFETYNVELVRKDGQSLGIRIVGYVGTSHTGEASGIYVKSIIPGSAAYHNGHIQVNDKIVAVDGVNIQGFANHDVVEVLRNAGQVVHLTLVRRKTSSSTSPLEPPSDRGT
Sequence of GIPC2, Q8TF65 (Q8TF65 112-203): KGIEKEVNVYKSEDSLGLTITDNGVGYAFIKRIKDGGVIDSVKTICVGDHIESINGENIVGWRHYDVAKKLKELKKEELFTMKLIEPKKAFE

pKd (ARHGAP21, Q5T5U3)	pKd (DFNB31_1, Q9P202)	pKd (DLG2_3, Q15700)	pKd (FRMPD2_1, Q68DX3)	pKd (FRMPD3, Q5JV73)	pKd (GIPC2, Q8TF65)	pKd (GOPC, Q9HD26)	pKd (GORASP2, Q9H8Y8)	pKd (GRID2IP_2, A4D2P6)	pKd (GRIP1_7, Q9Y3R0)	pKd (HTRA3, P83110)	pKd (Inadl_1, Q8NI35)	pKd (Inadl_3, Q8NI35)	pKd (Inadl_5, Q8NI35)	pKd (LAP2, Q96RT1)	pKd (LIN7C, Q9NUP9)	pKd (LNX2_3, Q8N448)	pKd (MPDZ_5, O75970)	pKd (NHERF2_2, Q15599)	pKd (PARD3B_1, Q8TEW8)	Binder	other results
3.82	3.52	4.52	3.74	below the threshold	below the threshold	4.36	5.13	4.34	below the threshold	3.66	below the threshold	3.99	3.63	3.88	4.31	below the threshold	below the threshold	4.21	below the threshold	RRRESYSTTV [EVI5, O60447]	pKd (PDZD2_2, O15018): 4.7; pKd (SCRIB_2, Q14160): below the threshold; pKd (SNTA1, Q13424): 4.41; pKd (TJP1_2, Q07157): below the threshold; pKd (TX1BP3, O14907): 4.09
3.97	below the threshold	below the threshold	below the threshold	below the threshold	below the threshold	below the threshold	below the threshold	below the threshold	below the threshold	below the threshold	below the threshold	below the threshold	4.73	3.9	3.88	below the threshold	3.82	below the threshold	below the threshold	LRSPRTPSEV [OR10G3, Q8NGC4]	pKd (PDZD2_2, O15018): 3.95; pKd (SCRIB_2, Q14160): 3.6; pKd (SNTA1, Q13424): 3.52; pKd (TJP1_2, Q07157): 3.62; pKd (TX1BP3, O14907): 3.51
4.1	3.52	below the threshold	below the threshold	below the threshold	below the threshold	3.87	below the threshold	4.16	below the threshold	below the threshold	below the threshold	below the threshold	below the threshold	below the threshold	below the threshold	below the threshold	below the threshold	below the threshold	below the threshold	LGRSTPQSEV [DGKH, Q86XP1]	pKd (PDZD2_2, O15018): 4.72; pKd (SCRIB_2, Q14160): below the threshold; pKd (SNTA1, Q13424): 3.8; pKd (TJP1_2, Q07157): below the threshold; pKd (TX1BP3, O14907): 4.03
